Experimental data published in publication PMC7507306, “Highly active rubiscos discovered by systematic interrogation of natural sequence diversity” (The EMBO Journal, 2020).

Key:
Experiment in all cases: SEC; analytical gel filtration of the purified rubisco; oligomer state read from the elution; conditions not shown (Appendix)
[1] = molecular target: Acidithiobacillus ferrooxidans rubisco (form-II) (Acidithiobacillus ferrooxidans)
[2] = molecular target: Zetaproteobacterium rubisco (form-II) (Zetaproteobacterium)
[3] = molecular target: Sulfurivirga caldicuralii rubisco (form-II) (Sulfurivirga caldicuralii)
[4] = molecular target: Zetaproteobacteria_53_45 rubisco (form-II) (Zetaproteobacteria_53_45)
[5] = molecular target: Gallionella sp. rubisco (form-II) (Gallionella sp.)
[6] = molecular target: the molecule itself

For “Acidithiobacillus ferrooxidans rubisco (form-II) (enzyme)”, the stoichiometry N [1] was 6.

“Zetaproteobacterium rubisco (form-II) (enzyme)” gave a stoichiometry N [2] of 2.

For “Sulfurivirga caldicuralii rubisco (form-II) (enzyme)”, the stoichiometry N [3] was 4.

“Zetaproteobacteria_53_45 rubisco (form-II) (enzyme)” gave a stoichiometry N [4] of 2.

With “Gallionella sp. rubisco (form-II) (enzyme)” the stoichiometry N [5] was 2.

B1: Hydrogenovibrio marinus rubisco (form-II) (enzyme, UniProt Q59462 1-463, looked up)
chain: MDQSNRYADLTLTEEKLVADGNHLLVAYRLKPAAGYGFLEVAAHVAAESSTGTNVEVSTTDDFTRGVDALVYEIDEAAFGDKGGLMKIAYPVDLFDPNLIDGHYNVSHMWSLILGNNQGMGDHEGLRMLDFLVPEKMVKRFDGPATDISDLWKVLGRPEVDGGYIAGTIIKPKLGLRPEPFAKACYDFWLGGDFIKNDEPQANQNFCPMEVVIPKVAEAMDRAQQATGQAKLFSANVTADFHEEMIKRGEYVLGEFAKYGNEKHVAFLVDGFVTGPAGVTTSRRAFPDTYLHFHRAGHGAVTSYKSPMGMDPLCYMKLARLMGASGIHTGTMGYGKMEGHNDERVLAYMLERDECQGPYFYQKWYGMKPTTPIISGGMDALRLPGFFENLGHGNVINTCGGGSFGHIDSPAAGGISLGQAYACWKTGAEPIEAPREFARAFESFPGDADKIFPGWREKLGVHK
notes: form-II rubisco large subunit from Hydrogenovibrio marinus; scarless tag cleavage gives the native rubisco; source: E. coli BL21(DE3), purified (nickel magnetic beads, eluted by on-bead cleavage of the SUMO tag with bdSENP1); not shown: 14xHis, N-terminal, cleaved; bdSUMO, N-terminal, cleaved
With B1 the “stoichiometry N” value [6] was 2.
